The labels stand for the following.
B1: myc-tagged Gα12 Gln^229Leu (myc-Gα12^QL) [not stated] / GST fusion of protein phosphatase-5 [not stated] (parent)
chain 1: MSGVVRTLSRCLLPAEAGARERRAGAARDAEREARRRSRDIDALLARERRAVRRLVKILLLGAGESGKSTFLKQMRIIHGREFDQKALLEFRDTIFDNILKGSRVLVDARDKLGIPWQHSENEKHGMFLMAFENKAGLPVEPATFQLYVPALSALWRDSGIREAFSRRSEFQLGESVKYFLDNLDRIGQLNYFPSKQDILLARKATKGIVEHDFVIKKIPFKMVDVGGLRSQRQKWFQCFDGITSILFMVSSSEYDQVLMEDRRTNRLVESMNIFETIVNNKLFFNVSIILFLNKMDLLVEKVKSVSIKKHFPDFKGDPHRLEDVQRYLVQCFDRKRRNRSKPLFHHFTTAIDTENIRFVFHAVKDTILQENLKDIMLQ
chain 2: MAMAEGERTECAEPPRDEPPADGALKRAEELKTQANDYFKAKDYENAIKFYSQAIELNPSNAIYYGNRSLAYLRTECYGYALGDATRAIELDKKYIKGYYRRAASNMALGKFRAALRDYETVVKVKPHDKDAKMKYQECNKIVKQKAFERAIAGDEHKRSVVDSLDIESMTIEDEYSGPKLEDGKVTISFMKELMQWYKDQKKLHRKCAYQILVQVKEVLSKLSTLVETTLKETEKITVCGDTHGQFYDLLNIFELNGLPSETNPYIFNGDFVDRGSFSVEVILTLFGFKLLYPDHFHLLRGNHETDNMNQIYGFEGEVKAKYTAQMYELFSEVFEWLPLAQCINGKVLIMHGGLFSEDGVTLDDIRKIERNRQPPDSGPMCDLLWSDPQPQNGRSISKRGVSCQFGPDVTKAFLEENNLDYIIRSHEVKAEGYEVAHGGRCVTVFSAPNYCDQMGNKASYIHLQGSDLRPQFHQFTAVPHPNVKPMAYANTLLQLGMM

Variants of B1 are the subject of the test. Nature of the test: GST pull-down (co-precipitation), immunoblot pulldown:load ratio. The note with it: with GST fusion of protein phosphatase-5; grade: ++; mean of two or more trials; parent: 100.
Regarding chain 1 MSGVVRTLSRCLLPAEAGARERRAGAARDAEREARRRSRDIDALLARERRAVRRLVKILLLGAGESGKSTFLKQMRIIHGREFDQKALLEFRDTIFDNILKGSRVLVDARDKLGIPWQHSENEKHGMFLMAFENKAGLPVEPATFQLYVPALSALWRDSGIREAFSRRSEFQLGESVKYFLDNLDRIGQLNYFPSKQDILLARKATKGIVEHDFVIKKIPFKMVDVGGLRSQRQKWFQCFDGITSILFMVSSSEYDQVLMEDRRTNRLVESMNIFETIVNNKLFFNVSIILFLNKMDLLVEKVKSVSIKKHFPDFKGDPHRLEDVQRYLVQCFDRKRRNNAAIRSHHFTTAIDTENIRFVFHAVKDTILQENLKDIMLQ [chain 1 R340N S341A K342A P343I L344R F345S], the percent of parent (% of myc-Gα12QL pulldown:load ratio) was greater than 60.

As for chain 1 MSGVVRTLSRCLLPAEAGARERRAGAARDAEREARRRSRDIDALLARERRAVRRLVKILLLGAGESGKSTFLKQMRIIHGREFDQKALLEFRDTIFDNILKGSRVLVDARDKLGIPWQHSENEKHGMFLMAFENKAGLPVEPATFQLYVPALSALWRDSGIREAFSRRSEFQLGESVKYFLDNLDRIGQLNYFPSKQDILLARKATKGIVEHDFVIKKIPFKMVDVGGLRSQRQKWFQCFDGITSILFMVSSSEYDQVLMEDRRTNRLVESMNIFETIVNNKLFFNVSIILFLNKMDLLVEKVKSVSIKKHFPDFKGDPHRLEDVQRYLVQCFDRKRRNRSKPLFHHFTTANAAIRSRFVFHAVKDTILQENLKDIMLQ [chain 1 I352N D353A T354A E355I N356R I357S], the percent of parent (% of myc-Gα12QL pulldown:load ratio) was greater than 60.

For the variant chain 1 MSGVVRTLSRCLLPAEAGARERRAGAANAAIRSARRRSRDIDALLARERRAVRRLVKILLLGAGESGKSTFLKQMRIIHGREFDQKALLEFRDTIFDNILKGSRVLVDARDKLGIPWQHSENEKHGMFLMAFENKAGLPVEPATFQLYVPALSALWRDSGIREAFSRRSEFQLGESVKYFLDNLDRIGQLNYFPSKQDILLARKATKGIVEHDFVIKKIPFKMVDVGGLRSQRQKWFQCFDGITSILFMVSSSEYDQVLMEDRRTNRLVESMNIFETIVNNKLFFNVSIILFLNKMDLLVEKVKSVSIKKHFPDFKGDPHRLEDVQRYLVQCFDRKRRNRSKPLFHHFTTAIDTENIRFVFHAVKDTILQENLKDIMLQ [chain 1 R28N D29A E31I E33S], the percent of parent (% of myc-Gα12QL pulldown:load ratio) is greater than 60.

As to chain 1 MSGVVRTLSRCLLPAEAGARERRAGAARDAEREARRRSRDIDALLARERRAVRRLVKILLLGAGESGKSTFLKQMRIIHGREFDQKALLEFRDTIFDNILKGSRVLVDARDKLGIPWQHSENEKHGMFLMAFENKAGLPVEPATFQLYVPALSALWRDSGIREAFSRRSEFQLGESVKYFLDNLDRIGQLNYFPSKQDILLARKATKGIVEHDFVIKKIPFKMVDVGGLRSQRQKWFQCFDGITSILFMVSSSEYDQVLMEDRRTNRLVESMNIFETIVNNKLFFNVSIILFLNKMDLLVEKVKSVSIKKHFPDFKGDPHRLEDVQRYLVQCFDRKRRNRSKPLFNAAIRSIDTENIRFVFHAVKDTILQENLKDIMLQ [chain 1 H346N H347A F348A T349I T350R A351S], the percent of parent (% of myc-Gα12QL pulldown:load ratio) was greater than 60.

With chain 1 MSGVVRTLSRCLLPAEAGARERRAGAARDAEREARRRSRDIDALLARERRAVRRLVKILLLGAGESGKSTFLKQMRIIHGREFDQKALLEFRDTIFDNILKGSRVLVDARDKLGIPWQHSENEKHGMFLMAFENKAGLPVEPATFQLYVPALSALWRDSGIREAFSRRSEFQLGESVKYFLDNLDRIGQLNYFPSKQDILLARKATKGIVEHDFVIKKIPFKMVDVGGLRSQRQKWFQCFDGITSILFMVSSSEYDQVLMEDRRTNRLVESMNIFETIVNNKLFFNVSIILFLNKMDLLVEKVKSVSIKKHFPDFKGDPHRLEDVQRYLVQCFDRKRRNRSKPLFHHFTTAIDTENINAAIRSVKDTILQENLKDIMLQ [chain 1 R358N F359A V360A F361I H362R A363S], the percent of parent (% of myc-Gα12QL pulldown:load ratio) was greater than 60.

As to chain 1 MSGVVRTLSRCLLPAEAGARERRAGAARDAEREARRRSRDIDALLARERRAVRRLVKILLLGAGESGKSTFLKQMRIIHGREFDQKALLEFRDTIFDNILKGSRVLVDARDKLGIPWQHSENEKHGMFLMAFENKAGLPVEPATFQLYVPALSALWRDSGIREAFSRRSEFQLGESVKYFLDNLDRIGQLNYFPSKQDILLARKATKGIVEHDFVIKKIPFKMVDVGGLRSQRQKWFQCFDGITSILFMVSSSEYDQVLMEDRRTNRLVESMNIFETIVNNKLFFNVSIILFLNKMDLLVEKVKSVSIKKHFPDFNAAIRSLEDVQRYLVQCFDRKRRNRSKPLFHHFTTAIDTENIRFVFHAVKDTILQENLKDIMLQ [chain 1 K316N G317A D318A P319I H320R R321S], the percent of parent (% of myc-Gα12QL pulldown:load ratio) was greater than 60.

For the variant chain 1 MSGVVRTLSRCLLPAEAGARERRAGAARDAEREARRRSRDIDALLARERRANAAIRSILLLGAGESGKSTFLKQMRIIHGREFDQKALLEFRDTIFDNILKGSRVLVDARDKLGIPWQHSENEKHGMFLMAFENKAGLPVEPATFQLYVPALSALWRDSGIREAFSRRSEFQLGESVKYFLDNLDRIGQLNYFPSKQDILLARKATKGIVEHDFVIKKIPFKMVDVGGLRSQRQKWFQCFDGITSILFMVSSSEYDQVLMEDRRTNRLVESMNIFETIVNNKLFFNVSIILFLNKMDLLVEKVKSVSIKKHFPDFKGDPHRLEDVQRYLVQCFDRKRRNRSKPLFHHFTTAIDTENIRFVFHAVKDTILQENLKDIMLQ [chain 1 V52N R53A R54A L55I V56R K57S], the percent of parent (% of myc-Gα12QL pulldown:load ratio) is greater than 60.

(Values after publication PMC3636079, “Determinants at the N- and C-termini of Gα12 required for activation of Rho-mediated signaling” (Journal of Molecular Signaling, 2013).)
